Results taken from patent publication US9193963B2, “Mutant endoglucanase” (Toray Industries, Inc., priority 2011, dated 2015).
Positions count from the first letter of the chain named.

B1: EGSt Wild-type: Spirochaeta thermophile-derived endoglucanase, SEQ ID NO: 37, parent endoglucanase (protein)
chain: MKYLRTILLSLLVFLITLGCSLPFLDVSGKGGTAARATELRVGRLTGVNWFGFETGNHVVHGLWARDYKSMLKQIADLGFNCIRIPWANEMIDKAPNSIQINPSGVDPYTGEQGLNLDLEGLSSLEVLDKIIEEANRLGLYVILDNHSRAADGYMNETLWYTDEYPEERWISDWVMMVRRYKNYPNVIGADLNNEPHGNTGTGMKPPATWGYTLPEYGDTDWKAAAERCAAAILAENPNLYIIVEGVEEYQGDTYWWGGNLKGVRDYPITSIPAENLIYSPHEYGPEVYNQSWFSDPTFPDNMPAIWDEHFWFIYKENIAPVLIGEFGIKEASAADPSSVAYQWFTTFMAYVGDKASWTFWSWNPNSGDTGGILKDDWVTVNEAKYNLIRPYLANPPQPTATPTPTGTPTPTPTPTPTPTPTPTPTPTPTPTATPTPTPTPTPTPTPTPTATPTPSGEYTEIALPFSYDGAGEYYWKTDQFSTDPNDWSRYVNSWNLDLLEINGTDYTNVWVAQHQIPAASDGYWYIHYKSGVSWGHVEIK
modifications: Spirochaeta thermophila EGSt
B2: EGSt Mutant: mutant EGSt, SEQ ID NO: 38; residue corresponding to 273rd tryptophan substituted with alanine (protein)
chain: B1 chain with W257A
modifications: Spirochaeta thermophila EGSt W257A
notes: residue corresponding to 273rd tryptophan substituted with alanine
B3: EGPh Wild-type: Pyrococcus horikoshii-derived endoglucanase, SEQ ID NO: 1, parent endoglucanase (protein)
chain: MEGNTILKIVLICTILAGLFGQVVPVYAENTTYQTPTGIYYEVRGDTIYMINVTSGEETPIHLFGVNWFGFETPNHVVHGLWKRNWEDMLLQIKSLGFNAIRLPFCTESVKPGTQPIGIDYSKNPDLRGLDSLQIMEKIIKKAGDLGIFVLLDYHRIGCTHIEPLWYTEDFSEEDFINTWIEVAKRFGKYWNVIGADLKNEPHSVTSPPAAYTDGTGATWGMGNPATDWNLAAERIGKAILKVAPHWLIFVEGTQFTNPKTDSSYKWGYNAWWGGNLMAVKDYPVNLPRNKLVYSPHVYGPDVYNQPYFGPAKGFPDNLPDIWYHHFGYVKLELGYSVVIGEFGGKYGHGGDPRDVIWQNKLVDWMIENKFCDFFYWSWNPDSGDTGGILQDDWTTIWEDKYNNLKRLMDSCSKSSSSTQSVIRSTTPTKSNTSKKICGPAILIILAVFSLLLRRAPR
modifications: Pyrococcus horikoshii EGPh
B4: EGPh Mutant: mutant EGPh, SEQ ID NO: 2; 273rd tryptophan substituted with alanine (protein)
chain: B3 chain with W273A
modifications: Pyrococcus horikoshii EGPh W273A
notes: 273rd tryptophan substituted with alanine

What was measured:
[1] = Saccharification of lignocellulose 3 with Trichoderma reesei culture solution and endoglucanase; type: biochemical, Rice straw; details: Lignocellulose 3, 24 hours; cellulase 1.0 mg/mL + endoglucanase 0.1 mg/mL + β-glucosidase (Novozyme 188) 0.01 mg/mL
Procedure: (§1) Rice straw was used as cellulose. The cellulose was immersed in water, and then autoclaved with agitation at 180° C. for 20 minutes (Nitto Koatsu Co. Ltd.). Pressure at this time was 10 MPa. After treatment, a solution component (hereinafter, referred to as “hydrothermally treated solution”) and the treated biomass component were subjected to solid-liquid separation by centrifugation (3000 G). The thus treated biomass component was used as lignocellulose 3 for the following examples.
(§2) The changes in the amount of glucose generated when the enzyme composition had been caused to act on lignocellulose substrates were compared. The substrates were prepared by suspending 5 wt % lignocelluloses (1 to 3) (prepared in Reference Example 3) in 50 mM acetate buffer (pH5.2). Reactions were performed at 50° C. for 24 hours. The concentrations of the generated glucose were measured after adequate sampling. As a filamentous bacterium-derived cellulase mixture, commercially available Trichoderma reesei-derived cellulase (Celluclast, Sigma) was used. As endoglucanases, the mutant endoglucanases prepared in Example 2 and the wild-type endoglucanases prepared in Reference Example 1 were separately used. The following quantities of enzymes were added: 1.0 mg/mL cellulase, and 0.1 mg/mL endoglucanase (in an amount one tenth that of the cellulase).
(§3) Lignocelluloses (1-3) prepared in Reference Example 3 were used as substrates. The Trichoderma reesei culture solution prepared in Reference Example 4 was used as a filamentous bacterium-derived cellulase mixture. Lignocelluloses (1-3) were hydrolyzed in a manner similar to that in Example 7, except for the quantities of the enzymes added: cellulase (1.0 mg/mL); endoglucanase (0.1 mg/mL (in an amount one tenth that of the cellulase); and β-glucosidase (Novozyme 188) (0.01 mg/mL (in an amount one hundredth that of the cellulase).

[2] = Activity to degrade phosphoric acid swollen cellulose; type: biochemical
Procedure: The term “identity” refers to the percentage of amino acid residues identical to and amino acid residues analogous to the other amino acid residues in all the amino acid residues overlapped when an optimum alignment is performed by introducing gaps or no gaps into two amino acid sequences and then aligning the two amino acid sequences. Such an identity can be found using a method known by persons skilled in the art, sequence analysis software, and the like (a known algorithm such as BLAST or FASTA). The term “endoglucanase activity” is as defined above and can be determined by adding an enzyme solution to a substrate solution of phosphoric acid swollen cellulose that has been dissolved in 50 mM acetic acid-sodium acetate buffer (pH 5.2) or the like, performing 1 hour of reaction at 30° C. to 85° C., stopping the reaction by changing the pH if necessary, and then determining the concentration of glucose in the reaction solution using a glucose determination kit, for example.
The mutants obtained in Comparative Example 1 were compared in terms of activity by a technique similar to that in Example 3. The concentration (g/L) of glucose generated by each parent endoglucanase under the above reaction conditions was determined to be 100%.

[3] = Saccharification of lignocellulose 2 with Celluclast and endoglucanase; type: biochemical, Rice straw; details: 5 wt % Lignocellulose 2, pH 5.2, 50° C., 24 hours; 1.0 mg/mL cellulase + 0.1 mg/mL endoglucanase
Procedure: (§4) Rice straw was used as cellulose. Cellulose was immersed in a 1% aqueous sulfuric acid solution, and then autoclaved for 30 minutes at 150° C. (Nitto Koatsu Co. Ltd.). After treatment, the resultant was subjected to solid-liquid separation into an aqueous sulfuric acid solution (hereinafter, referred to as “dilute-sulfuric-acid-treated solution”) and cellulose treated with sulfuric acid. Next, the cellulose treated with sulfuric acid was mixed and agitated with the dilute-sulfuric-acid-treated solution so that the solid content concentration was 10 wt %. Then the mixture was adjusted to around pH 5 using sodium hydroxide. The resultant was used as lignocellulose 2 for the following examples.
as §2

[4] = Saccharification of lignocellulose 2 with Trichoderma reesei culture solution and endoglucanase; type: biochemical, Rice straw; details: Lignocellulose 2, 24 hours; cellulase 1.0 mg/mL + endoglucanase 0.1 mg/mL + β-glucosidase (Novozyme 188) 0.01 mg/mL
Procedure: as §4, §2, §3

[5] = Saccharification of lignocellulose 1 with Celluclast and endoglucanase; type: biochemical, Rice straw; details: 5 wt % Lignocellulose 1, pH 5.2, 50° C., 24 hours; 1.0 mg/mL cellulase + 0.1 mg/mL endoglucanase
Procedure: (§5) Rice straw was used as cellulose. The cellulose was added to a small reactor (Taiatsu Techno Corporation, TVS-N2 (30 ml)), and then cooled with liquid nitrogen. An ammonia gas was fed to the reactor, thereby completely immersing the sample in the liquid ammonia. The reactor was closed using its lid, and then left to stand at room temperature for 15 minutes. Subsequently, treatment was performed for 1 hour in an oil bath at 150° C. After treatment, the reactor was removed from the oil bath, an ammonia gas leak was immediately performed within a draft chamber. The reactor was vacuumed using a vacuum pump to 10 Pa for drying. The resultant was used as lignocellulose 1 in the following examples.
as §2

[6] = Inhibition experiment with vanillin: degradation of phosphoric acid swollen cellulose; type: biochemical; details: enzyme 0.5 μM, 1 hour, 50° C., parent at 0 mM = 100%
Procedure: (§6) This substance was diluted using buffer and water to obtain a 2 wt % mixture so that the final concentration of sodium acetate was 50 mM (pH 5.2). This was designated as phosphoric acid swollen cellulose and used for the following examples.
The activity of the wild-type and the mutant endoglucanases to degrade phosphoric acid swollen cellulose in the presence of vanillin was measured. 1% phosphoric acid swollen cellulose/50 mM acetate buffer (pH 5.2) was used as a substrate. Vanillin (Sigma Aldrich) was added at final concentrations of 0, 5, 10, and 15 mM. The enzymes prepared in Reference Example 1 and Example 2 were added at a final concentration of 0.5 μM, followed by 1 hour of enzymatic reaction at 50° C.

[7] = Saccharification of lignocellulose 3 with Celluclast and endoglucanase; type: biochemical, Rice straw; details: 5 wt % Lignocellulose 3, pH 5.2, 50° C., 24 hours; 1.0 mg/mL cellulase + 0.1 mg/mL endoglucanase
Procedure: as §1, §2

[8] = Inhibition experiment with ferulic acid: degradation of phosphoric acid swollen cellulose; type: biochemical; details: enzyme 0.5 μM, 1 hour, 50° C., parent at 0 mM = 100%
Procedure: as §6
The activity of the wild-type and the mutant endoglucanases to degrade phosphoric acid swollen cellulose was measured in the presence of ferulic acid. 1% phosphoric acid swollen cellulose/50 mM acetate buffer (pH 5.2) was used as a substrate. Ferulic acid (Sigma Aldrich) was added at final concentrations of 0, 5, 10, and 15 mM. The enzymes prepared in Reference Example 1 and Example 2 were each added at a final concentration of 0.5 μM, followed by 1 hour of enzymatic reaction at 50° C.

[9] = Saccharification of lignocellulose 1 with Trichoderma reesei culture solution and endoglucanase; type: biochemical, Rice straw; details: Lignocellulose 1, 24 hours; cellulase 1.0 mg/mL + endoglucanase 0.1 mg/mL + β-glucosidase (Novozyme 188) 0.01 mg/mL
Procedure: as §5, §2, §3

[10] = 1% phosphoric acid swollen cellulose, pH 5.2, enzyme 0.5 μM, 1 hour, 50° C., glucose generated by each parent endoglucanase = 100%

Molecule | Concentration of glucose generated, Culture solution + Wild-type [1] [g/L] | Relative activity [2, 10] [%] | Concentration of glucose generated, Celluclast + Wild-type [3] [g/L] | Concentration of glucose generated, Culture solution + Wild-type [4] [g/L] | Concentration of glucose generated, Celluclast + Wild-type [5] [g/L] | Relative activity to degrade phosphoric acid swollen cellulose ([6]; vanillin 0 mM) [%] | Relative activity to degrade phosphoric acid swollen cellulose ([6]; vanillin 5 mM) [%] | Relative activity to degrade phosphoric acid swollen cellulose ([6]; vanillin 10 mM) [%] | Relative activity to degrade phosphoric acid swollen cellulose ([6]; vanillin 15 mM) [%] | Concentration of glucose generated, Celluclast + Wild-type [7] [g/L] | Relative activity to degrade phosphoric acid swollen cellulose ([8]; ferulic acid 0 mM) [%] | Relative activity to degrade phosphoric acid swollen cellulose ([8]; ferulic acid 5 mM) [%] | Relative activity to degrade phosphoric acid swollen cellulose ([8]; ferulic acid 10 mM) [%] | Relative activity to degrade phosphoric acid swollen cellulose ([8]; ferulic acid 15 mM) [%] | Concentration of glucose generated, Culture solution + Wild-type [9] [g/L] | Concentration of glucose generated, Culture solution + Mutant [1] [g/L] | Concentration of glucose generated, Celluclast + Mutant [3] [g/L] | Concentration of glucose generated, Culture solution + Mutant [4] [g/L] | Concentration of glucose generated, Celluclast + Mutant [5] [g/L] | Concentration of glucose generated, Celluclast + Mutant [7] [g/L] | also measured
B1 | 8 | 100 | 12 | 9 | 11 | 100 | 50 | 50 | 45 | 11 | 100 | 50 | 45 | 40 | 8 |  |  |  |  |  | 
B2 |  | 100 |  |  |  | 100 | 100 | 100 | 90 |  | 100 | 100 | 100 | 90 |  | 11 | 15 | 12 | 14 | 14 | Concentration of glucose generated, Culture solution + Mutant [9]: 11 g/L
B3 | 10 | 100 | 11 | 8 | 12 | 100 | 40 | 40 | 40 | 12 | 100 | 60 | 50 | 50 | 9 |  |  |  |  |  | Relative activity ([2]; Comparative Example 2, technique similar to Example 3, parent endoglucanase = 100%): 100%
B4 |  | 100 |  |  |  | 100 | 95 | 90 | 90 |  | 100 | 100 | 100 | 95 |  | 13 | 15 | 12 | 16 | 16 | Concentration of glucose generated, Culture solution + Mutant [9]: 13 g/L
